Values quoted from earlier work in patent US20070140974A1, “Targeted nanoparticles for magnetic resonance imaging” (General Electric Company, priority 2005, published 2007).

What was measured:
uPAR = uPAR (Homo sapiens, UniProt Q03405)
[1] = room temperature, 1.5 Tesla magnetic field

Sequence of uPAR (Q03405 23-305): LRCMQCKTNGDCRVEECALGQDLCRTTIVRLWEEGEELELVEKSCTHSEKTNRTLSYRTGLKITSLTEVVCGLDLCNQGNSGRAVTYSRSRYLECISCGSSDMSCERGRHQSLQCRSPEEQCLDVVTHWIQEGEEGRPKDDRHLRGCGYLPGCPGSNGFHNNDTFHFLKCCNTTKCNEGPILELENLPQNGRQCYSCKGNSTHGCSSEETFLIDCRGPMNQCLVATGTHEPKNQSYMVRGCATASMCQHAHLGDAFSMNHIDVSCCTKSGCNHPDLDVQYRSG

Row | Molecule | binding of uPAR and inhibition of integrin or vitronectin binding (uPAR) | R1 relaxivity [1]
1 | AEFFKLGPNGYVYLHSA | capable of binding uPAR and inhibiting binding of vitronectin | –
2 | AELDLSTFYDIQYLLRT | capable of binding uPAR and inhibiting binding of vitronectin | –
3 | O=C([O-])CN(CCN(CC(=O)[O-])CC(=O)O)CCN(CC(=O)[O-])CC(=O)O.[Gd+3] [Gd-DTPA] | – | 3 mM⁻¹ s⁻¹
4 | AEPVYQYELDSYLRSYY | capable of binding uPAR and inhibiting binding of vitronectin | –
5 | AESTYHHLSLGYMYTLN | capable of binding uPAR and inhibiting binding of integrin | –
